Experimental data: paper PMC7718890, “High-throughput screening to discover inhibitors of the CarD·RNA polymerase protein–protein interaction in Mycobacterium tuberculosis” (Scientific Reports, 2020)

Molecular target: Mycobacterium tuberculosis RNA polymerase, wild type (Mycobacterium tuberculosis) (UniProt P9WGY9)
Experiment: FP

CarD T24C labelled with BODIPY-FL
Kd: 56 nM
